Results as given in publication PMC6607583.

How the values were obtained:
[1] = target: HIV-1 NL4-3 Nef-FTS Mut1 (WL-EEEE to AA-AAAA) (HIV-1 (NL4-3 strain)) (UniProt P03406); experiment: pull-down; HeLa cells transiently transfected with FTS-tagged bait, cross-linked with 1 mM DSP (4 °C, 6 h), lysed in 50 mM Tris-HCl pH 7.4, 300 mM NaCl, 5 mM EDTA, 0.5% NP-40; bait isolated on Strep-Tactin resin overnight at 4 °C; endogenous prey detected by immunoblotting
[2] = target: HIV-1 NL4-3 Nef-FTS Mut2 (EEEE-PxxP to AAAA-AxxA) (HIV-1 (NL4-3 strain)) (UniProt P03406); experiment: as above

Substance: autophagy-related 9A (ATG9A) protein, endogenous in HeLa (from UniProt Q7Z3C6 1-839) (natural protein)
- Nef-ATG9A pulldown relative to WT Nef [1]: 10 % of WT Nef
- Nef-ATG9A pulldown relative to WT Nef [2]: 10 % of WT Nef
